Results taken from the supplement of paper PMC10126150.
± gives the standard deviation of the averaged measurements.

Tested on: ATP
Experiment: switch fluorescence ratio, 500 uM ATP over buffer (Cy3 cluster intensity, sum of 5 cycles each) (fold (ratio)); higher = stronger signal-on switching upon ATP binding; sequences stand for … in TCGTCGGCAGCGTCAGATGTGTATAAGAGACAGTTTTTTTTTTTTTTTTTTTTTTTTT…TC
Details: aptamer strand: ATP DNA aptamer (quencher-CACCTGGGGGAGTATTGCGGAGGAAGG + anchor), 100 nM annealed; ATP concentration: 500 uM
Method in brief: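 After annealing to 100 nM quencher-labelled ATP aptamer, Cy3-labelled switching-strand clusters on a modified Illumina MiSeq flow-cell were imaged in selection buffer. A second image followed after 15 min with 500 uM ATP at 22 °C, and five such buffer/ATP cycles were done, each separated by NaOH stripping and re-annealing. The fluorescence ratio, averaged per switch-domain sequence, is summed target-cycle over summed buffer-cycle Cy3 intensity per cluster, with clusters outside 100-1000 RFU excluded.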
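Also: ATP exposure 15 min at 22 °C before imaging.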

| Sequence | switch fluorescence ratio |
| --- | --- |
| CAATGCAGGG | 1.03 ± 0.014 |
| TTGAGTTTGA | 0.994 ± 0.011 |
| GGGGTCAGTG | 0.998 ± 0.054 |
| TAGGCCCTTG | 1.01 ± 0.043 |
| GGATTTCCAG | 0.999 ± 0.03 |
| ATAGTCAAAC | 1.027 ± 0.0025 |
| GGAATTGGGC | 1.03 ± 0.022 |
| CTGTGTAGCT | 1.02 ± 0.024 |
| CGGGGTGAAT | 1.022 ± 0.0052 |
| GGTTCGGGAA | 0.9965 ± 0.0022 |
| AGAGGGATGG | 0.9919 ± 0.0076 |
| GATTATATCT | 0.981 ± 0.033 |
| AGGTTGGTAA | 0.969 ± 0.01 |
| AATTATGTTT | 0.995 ± 0.03 |
| GCATGGGGTG | 1.069 ± 0.0081 |
| ATATATCTAG | 0.998 ± 0.029 |
| GTTTTTTAAT | 1.015 ± 0.0061 |
| ATACTCTATT | 1.07 ± 0.025 |
| TTTATGAGCC | 1.01 ± 0.062 |
| CAGGAGACGC | 1.05 ± 0.036 |
| AGTTATTATT | 0.963 ± 0.0055 |
| GCAGAAGGTA | 1.01 ± 0.029 |
| TTACCGGATA | 1.035 ± 0.0092 |
| AAGCTAATGT | 1.061 ± 0.0089 |
| GTGAGGCGCT | 1.03 ± 0.011 |
| CCCCGTTAGT | 1.01 ± 0.08 |

| Sequence | switch fluorescence ratio |
| --- | --- |
| TAGGCATTTG | 1.006 ± 0.0069 |
| GAAACGATGT | 1.08 ± 0.05 |
| AAACGGGCAG | 0.985 ± 0.019 |
| AGCCATGATG | 0.979 ± 0.036 |
| GGCCCTACAG | 1.01 ± 0.036 |
| CCGGAAGACG | 1.39 ± 0.18 |
| GGAGCTGTCG | 0.9774 ± 0.0094 |
| CGGTGGGGT | 1.035 ± 0.0064 |
| AACGGGTCTG | 1.01 ± 0.039 |
| CGGAGGTAGC | 1.03 ± 0.058 |
| TAGCTGTACA | 1.01 ± 0.015 |
| TGGGAGAAAT | 2.39 ± 2.4 |
| AGGTTGGCAA | 1.07 ± 0.14 |
| CATGGGGGAC | 0.995 ± 0.031 |
| GAATTTTAGG | 0.9889 ± 0.0096 |
| GACAGTGTGG | 0.997 ± 0.049 |
| AGGAGATGTA | 1.029 ± 0.0061 |
| GATGTGTTCT | 0.988 ± 0.042 |
| GATCTTTCTG | 0.994 ± 0.041 |
| CTCCGGCGGG | 1.18 ± 0.057 |
| TACGGGGCGA | 1.07 ± 0.036 |
| TGCGAATGAG | 0.993 ± 0.0049 |
| TGGAGGGGGC | 1.01 ± 0.046 |
| TGGGGCGAAG | 1.01 ± 0.026 |
| GCAAGAACAG | 1.04 ± 0.036 |
| TTGACGCAGT | 1.23 ± 0.03 |

| Sequence | switch fluorescence ratio |
| --- | --- |
| AAGCAGGTGG | 1.052 ± 0.0096 |
| TCATGCAAAT | 1.04 ± 0.031 |
| TAGTTTTTCG | 1 ± 0.025 |
| GGTTCAGTG | 0.9936 ± 0.0079 |
| CTTTCCCTTT | 1.01 ± 0.03 |
| CCAATATAGC | 1.21 ± 0.016 |
| CGCTCCGGGC | 1.23 ± 0.058 |
| ATGGTAGAAA | 1.02 ± 0.012 |
| TGCATAATCT | 1.04 ± 0.026 |
| TCAGGAATTT | 1.68 ± 1.2 |
| AAGTTTGGGG | 0.983 ± 0.043 |
| GGCCGGTTGG | 0.9744 ± 0.0068 |
| TCTTGGTAAT | 0.996 ± 0.018 |
| TACGGATTGT | 0.988 ± 0.027 |
| TAGTTATCGT | 1.01 ± 0.027 |
| ATGGTCCCTG | 0.997 ± 0.035 |
| GGGGAGTACT | 1.34 ± 0.44 |
| GGTTTTTGTC | 1.01 ± 0.013 |
| CATTTTAATA | 1.01 ± 0.021 |
| ACGGATATGG | 0.98 ± 0.011 |
| TTTTTTCGAG | 1 ± 0.05 |
| GCGTAATGGG | 0.975 ± 0.02 |
| TAGATTGACC | 1.04 ± 0.033 |
| AGGGGTTTGC | 0.957 ± 0.021 |
| AATGGATGCG | 1 ± 0.029 |
| TCTTTCAGTT | 0.9816 ± 0.0082 |

| Sequence | switch fluorescence ratio |
| --- | --- |
| ACGTCAAGGG | 1.1 ± 0.067 |
| GGTACTCTTT | 1 ± 0.037 |
| AATATTTAAC | 0.9828 ± 0.0024 |
| GGGTGGGTTG | 1 ± 0.039 |
| TTCTAACTGG | 0.995 ± 0.013 |
| TATCTGTTGT | 0.967 ± 0.033 |
| TGATTATGTT | 1.04 ± 0.035 |
| AGGGGCTTCT | 1.06 ± 0.028 |
| CCATTCTTCG | 1.08 ± 0.028 |
| CATGATTGAT | 0.976 ± 0.029 |
| GTAGGGCGGT | 0.955 ± 0.026 |
| CAAGGGGGGA | 1.01 ± 0.023 |
| TTGTTATTGG | 0.978 ± 0.038 |
| GGGGGGCATC | 1.01 ± 0.024 |
| GCTGGGCTTG | 0.9947 ± 0.0033 |
| ACTGGTATTG | 1.02 ± 0.025 |
| ATTATGGTGG | 1.16 ± 0.26 |
| TGTGTTTTTG | 1.01 ± 0.015 |
| AGACGCGGTG | 1.044 ± 0.0038 |
| TTACTCGTCA | 0.989 ± 0.011 |
| TCGATCCAAC | 1.064 ± 0.0065 |
| ACTGATGGGT | 1 ± 0.013 |
| TCATGTTAGG | 0.994 ± 0.0075 |
| ATGGGAGAAA | 1.01 ± 0.0045 |
| ATCTTGGCAG | 0.968 ± 0.034 |
| TTCGGGGAAA | 1.02 ± 0.043 |

| Sequence | switch fluorescence ratio |
| --- | --- |
| CCCGGTACGG | 1.029 ± 0.0017 |
| TGACGCAAGG | 2.8 ± 0.093 |
| TGGTGTACTT | 1.01 ± 0.012 |
| GCTTCAGGGA | 1.02 ± 0.019 |
| TAGTGGGTGG | 0.989 ± 0.01 |
| TCGGGTAAGC | 1.014 ± 0.0052 |
| ATCGTAATTT | 0.971 ± 0.062 |
| TACTAGTTGG | 0.997 ± 0.011 |
| TTTCTGGCCG | 0.907 ± 0.046 |
| CGACTGATTA | 0.991 ± 0.013 |
| GCGTTTTCGG | 1.02 ± 0.039 |
| TTTTGGCTTT | 1 ± 0.034 |
| TATTAATGTT | 0.997 ± 0.019 |
| ATTGTTATCT | 1 ± 0.013 |
| GACCTTTAAA | 1.02 ± 0.011 |
| TACGAGTTTT | 0.996 ± 0.01 |
| ATTACGACTG | 1.06 ± 0.031 |
| TACTTGTGTT | 1.02 ± 0.046 |
| AAAGCCGTAG | 1.003 ± 0.0082 |
| ATGTGTGTA | 1 ± 0.021 |
| GGGGAAACGT | 1.12 ± 0.035 |
| GGGCTTTCTG | 0.98 ± 0.05 |
| TCGAAGAATG | 1.005 ± 0.002 |
| GTTAGGTGTG | 1.11 ± 0.13 |
| GGGGATTTCT | 0.99526 ± 0.00079 |
| AACTATTGCG | 0.988 ± 0.019 |

| Sequence | switch fluorescence ratio |
| --- | --- |
| TCGTTTCCGT | 0.984 ± 0.035 |
| TTATAAAGCG | 1.054 ± 0.0028 |
| CGTCGTGGAG | 1.01 ± 0.036 |
| AGGACGGCAG | 0.964 ± 0.13 |
| TGCGTTAT | 1.07 ± 0.036 |
| TCCTGTTTTT | 1.01 ± 0.056 |
| GTATAGGGAC | 1.03 ± 0.03 |
| CCGAACTTTT | 1.07 ± 0.075 |
| TTGGGTTAGC | 1.03 ± 0.037 |
| AGTTGTGCGT | 0.981 ± 0.012 |
| TCATGTTCGG | 1.02 ± 0.034 |
| TTACATATGG | 1.024 ± 0.0032 |
| CGGAGAAGTT | 1 ± 0.015 |
| TTGGGGTCCG | 0.977 ± 0.053 |
| GTCAAGGGGA | 1.02 ± 0.015 |
| ATTGTTTGCG | 0.966 ± 0.035 |
| GGGGGAGGCG | 1.03 ± 0.082 |
| GGTTGGTATT | 1.001 ± 0.0099 |
| CTGGTCATTT | 0.997 ± 0.069 |
| ATTGAAAGGC | 1.29 ± 0.42 |
| GGTCCTGGTT | 0.9859 ± 0.0021 |
| CCGTAACGGG | 1.09 ± 0.085 |
| GGGTTTATAA | 0.987 ± 0.023 |
